Test results reported in US20260116980A1.

Molecular target: B7H3 on H358 tumor cells (UniProt Q5ZPR3)
Assay: FACS on H358 cells, 1 h on ice, fluorescence-labelled anti-human Fc

Sequence of B7H3 on H358 tumor cells (Q5ZPR3 29-534): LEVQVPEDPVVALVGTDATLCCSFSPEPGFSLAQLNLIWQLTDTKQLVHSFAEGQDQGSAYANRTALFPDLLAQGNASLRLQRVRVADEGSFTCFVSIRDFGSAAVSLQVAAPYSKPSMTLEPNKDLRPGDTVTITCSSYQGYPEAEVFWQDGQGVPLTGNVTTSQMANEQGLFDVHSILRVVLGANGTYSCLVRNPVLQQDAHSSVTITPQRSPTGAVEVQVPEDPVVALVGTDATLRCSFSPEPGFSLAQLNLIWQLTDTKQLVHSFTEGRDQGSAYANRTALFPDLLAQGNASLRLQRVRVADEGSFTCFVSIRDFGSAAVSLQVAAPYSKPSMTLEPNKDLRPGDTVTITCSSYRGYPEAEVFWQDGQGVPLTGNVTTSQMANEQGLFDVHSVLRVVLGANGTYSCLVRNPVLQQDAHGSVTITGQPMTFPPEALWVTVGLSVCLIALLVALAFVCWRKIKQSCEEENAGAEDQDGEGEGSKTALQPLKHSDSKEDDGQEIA

- EC50 (read off the curve): 1 nM
Substance: MABX-9001a (a humanized anti-B7H3 IgG1 monoclonal antibody used for DS-7300a)
